Reference: patent publication US20080292615
Changes are numbered by the printed parent chain.

Tests used:
[1] = tested on: T1, Peptide P1 (corneodesmosin fragment with L at position 40 of L20815)
T1 sequence: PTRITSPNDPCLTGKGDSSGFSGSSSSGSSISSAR

[2] = tested on: T2, Peptide P2 (corneodesmosin fragment with F at position 40 of L20815)
T2 sequence: T1 sequence with L12F

Question: For chymotrypsin, which “products of proteolysis after exposure of the peptide to chymotrypsin” value [1] is on record?
Answer: Its value is “peptide P1 with L at position 40 of L20815 gives two products of proteolysis: PTRITSPNDPCL40TGKGDSSGF (SEQ ID NO 23) and SGSSSSGSSISSAR (SEQ ID NO 24)”.

Question: And the “products of proteolysis after exposure of the peptide to chymotrypsin” value [2]?
Answer: The value was “peptide P2 with F at position 40 of L20815 gives three small peptides PTRITSPNDPCF (SEQ ID NO 25), TGKGDSSGF (SEQ ID NO 26) and SGSSSSGSSISSAR (SEQ ID NO 24)”.
